In paper PMC9664404, “DNA-mediated proteolysis by neutrophil elastase enhances binding activities of the HMGB1 protein” (The Journal of Biological Chemistry, 2022):

Legend:
[1] = target: T1, HMGB1 full-length (disulfide form) (UniProt P09429 1-215); assay: fluorescence anisotropy; 150 mM NaCl; value only in figure; affinity lower than Δ39; 10 mM potassium phosphate pH 7.4, 200 mM NaCl (32G) or 150 mM NaCl (J1), 4 nM FAM-DNA, 25 °C; settings: protein: recombinant; label: 5'-FAM on J1A; four-way junction of 4 x 16-mer strands
[2] = target: T2, HMGB1 Δ39 (disulfide form) (UniProt P09429 1-176, del177-215); assay: fluorescence anisotropy; 150 mM NaCl; value only in figure; affinity higher than full-length; 10 mM potassium phosphate pH 7.4, 200 mM NaCl (32G) or 150 mM NaCl (J1), 4 nM FAM-DNA, 25 °C; settings: protein: recombinant; label: 5'-FAM on J1A; four-way junction of 4 x 16-mer strands
TLR4•MD-2 complex = target: T3, TLR4•MD-2 complex (UniProt O00206 24-631; Q9Y6Y9 19-160); assay: SPR; TLR4•MD-2 complex immobilised on a CM5 chip by amine coupling (1200 RU); HMGB1 proteins injected at 30 μl/min, 25 °C; 10 mM Hepes (pH 7.4), 150 mM NaCl, 3 mM EDTA, 0.005% v/v Tween-20; 1:1 binding model; Biacore T-100; three independent experiments; settings: both partners purified
T3 construct: toll-like receptor 4 (TLR4) of the bought TLR4•MD-2 complex; MD-2 of the bought TLR4•MD-2 complex; also called toll-like receptor 4 • MD-2 complex; source: bought: R&D Systems (catalog no. 3146-TM-050), lyophilized
T3 sequence (O00206 24-631, chain 1 of 2): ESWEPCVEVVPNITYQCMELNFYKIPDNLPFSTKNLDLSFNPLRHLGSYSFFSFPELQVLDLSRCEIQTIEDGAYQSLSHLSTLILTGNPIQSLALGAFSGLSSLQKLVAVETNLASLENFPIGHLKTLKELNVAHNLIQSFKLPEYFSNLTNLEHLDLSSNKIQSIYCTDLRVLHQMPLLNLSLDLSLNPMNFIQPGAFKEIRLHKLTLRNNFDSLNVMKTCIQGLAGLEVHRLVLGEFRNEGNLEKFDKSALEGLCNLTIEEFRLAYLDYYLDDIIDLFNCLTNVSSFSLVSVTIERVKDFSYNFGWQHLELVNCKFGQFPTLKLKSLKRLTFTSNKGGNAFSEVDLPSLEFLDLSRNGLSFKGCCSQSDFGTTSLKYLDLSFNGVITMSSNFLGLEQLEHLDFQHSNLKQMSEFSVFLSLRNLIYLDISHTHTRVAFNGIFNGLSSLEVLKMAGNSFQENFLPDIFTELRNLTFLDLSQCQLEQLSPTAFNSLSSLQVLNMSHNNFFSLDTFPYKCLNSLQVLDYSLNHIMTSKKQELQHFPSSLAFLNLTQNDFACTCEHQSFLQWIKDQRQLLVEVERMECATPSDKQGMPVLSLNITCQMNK
T3 sequence (Q9Y6Y9 19-160, chain 2 of 2): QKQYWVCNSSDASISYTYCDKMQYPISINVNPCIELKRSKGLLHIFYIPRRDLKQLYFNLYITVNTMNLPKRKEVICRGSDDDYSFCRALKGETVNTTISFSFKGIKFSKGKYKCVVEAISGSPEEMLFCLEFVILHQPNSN

[3] = target: HMGB1 Δ40 (disulfide form) (UniProt P09429 1-175, del176-215); assay: fluorescence anisotropy; 200 mM NaCl; value only in figure; as strong as Δ39; 10 mM potassium phosphate pH 7.4, 200 mM NaCl (32G) or 150 mM NaCl (J1), 4 nM FAM-DNA, 25 °C; settings: protein: recombinant; label: 5'-FAM; G-quadruplex
[4] = target: HMGB1 Δ44 (disulfide form) (UniProt P09429 1-171, del172-215); assay: as above; settings: protein: recombinant; label: 5'-FAM; G-quadruplex
[5] = target: T1, HMGB1 full-length (disulfide form); assay: fluorescence anisotropy; 200 mM NaCl; value only in figure; affinity lower than Δ39; 10 mM potassium phosphate pH 7.4, 200 mM NaCl (32G) or 150 mM NaCl (J1), 4 nM FAM-DNA, 25 °C; settings: protein: recombinant; label: 5'-FAM; G-quadruplex
[6] = target: T2, HMGB1 Δ39 (disulfide form); assay: fluorescence anisotropy; 200 mM NaCl; value only in figure; affinity higher than full-length; 10 mM potassium phosphate pH 7.4, 200 mM NaCl (32G) or 150 mM NaCl (J1), 4 nM FAM-DNA, 25 °C; settings: protein: recombinant; label: 5'-FAM; G-quadruplex

B1: Holliday junction J1 (J1A/J1B/J1C/J1D) (structured_DNA)
DNA 1: CGCAATCCTGAGCACG
DNA 2: CGTGCTCACCGAATGC
DNA 3: GCATTCGGACTATGGC
DNA 4: GCCATAGTGGATTGCG
- binding result [1]: binds
- binding result [2]: binds

B2: Δ39 variant of disulfide HMGB1 (lacks the C-terminal 39 residues) (domain or fragment, UniProt P09429 1-176, looked up)
chain: MGKGDPKKPRGKMSSYAFFVQTCREEHKKKHPDASVNFSEFSKKCSERWKTMSAKEKGKFEDMAKADKARYEREMKTYIPPKGETKKKFKDPNAPKRPPSAFFLFCSEYRPKIKGEHPGLSIGDVAKKLGEMWNNTAADDKQPYEKKAAKLKEKYEKDIAAYRAKGKPDAAKKGVV
modifications: disulfide bond between Cys23 and Cys45
notes: HMGB1 of GenBank CAG33144.1 with a stop codon at K177; lacks residues 177-215, ends at V176; also called Δ39 product; source: E. coli BL21(DE3), purified (SP-FF cation exchange, Resource S cation exchange, Sephacryl S-100 HR SEC)
- Kd (TLR4•MD-2 complex): 25 nM

B3: full-length (FL) disulfide HMGB1 protein (high-mobility-group-box-1, oxidized) (natural protein, UniProt P09429 1-215, looked up)
chain: MGKGDPKKPRGKMSSYAFFVQTCREEHKKKHPDASVNFSEFSKKCSERWKTMSAKEKGKFEDMAKADKARYEREMKTYIPPKGETKKKFKDPNAPKRPPSAFFLFCSEYRPKIKGEHPGLSIGDVAKKLGEMWNNTAADDKQPYEKKAAKLKEKYEKDIAAYRAKGKPDAAKKGVVKAEKSKKKKEEEEDEEDEEDEEEEEDEEDEDEEEDDDDE
modifications: disulfide bond between Cys23 and Cys45
notes: 215 residues (D/E repeats are residues 186-215); also called FL HMGB1; intact disulfide HMGB1; source: E. coli BL21(DE3), purified (SP-FF cation exchange, Resource-Q anion exchange, Sephacryl S-100 HR SEC)
- Kd (TLR4•MD-2 complex): 367 nM

Binder: AGGGCGGTGTGGGAAGAGGGAAGAGGGGGAGG (structured_DNA) [FAM-32G G-quadruplex]
- binding result [3]: binds
- binding result [4]: binds
- binding result [5]: binds
- binding result [6]: binds
